This note sets out measurements from article PMC11381518, “Human cell surface-AAV interactomes identify LRP6 as blood-brain barrier transcytosis receptor and immune cytokine IL3 as AAV9 binder” (Nature Communications, 2024).

In assay [1] the target is T1, mouse LRP6 (AA 20-1366) with a 6xHis tag (mouse, UniProt O88572 20-1366).
T1 construct: mouse LRP6 extracellular domain, AA 20-1366; also called full length extracellular domain of mouse LRP6; source: bought: Bio-Techne
T1 sequence (looked up): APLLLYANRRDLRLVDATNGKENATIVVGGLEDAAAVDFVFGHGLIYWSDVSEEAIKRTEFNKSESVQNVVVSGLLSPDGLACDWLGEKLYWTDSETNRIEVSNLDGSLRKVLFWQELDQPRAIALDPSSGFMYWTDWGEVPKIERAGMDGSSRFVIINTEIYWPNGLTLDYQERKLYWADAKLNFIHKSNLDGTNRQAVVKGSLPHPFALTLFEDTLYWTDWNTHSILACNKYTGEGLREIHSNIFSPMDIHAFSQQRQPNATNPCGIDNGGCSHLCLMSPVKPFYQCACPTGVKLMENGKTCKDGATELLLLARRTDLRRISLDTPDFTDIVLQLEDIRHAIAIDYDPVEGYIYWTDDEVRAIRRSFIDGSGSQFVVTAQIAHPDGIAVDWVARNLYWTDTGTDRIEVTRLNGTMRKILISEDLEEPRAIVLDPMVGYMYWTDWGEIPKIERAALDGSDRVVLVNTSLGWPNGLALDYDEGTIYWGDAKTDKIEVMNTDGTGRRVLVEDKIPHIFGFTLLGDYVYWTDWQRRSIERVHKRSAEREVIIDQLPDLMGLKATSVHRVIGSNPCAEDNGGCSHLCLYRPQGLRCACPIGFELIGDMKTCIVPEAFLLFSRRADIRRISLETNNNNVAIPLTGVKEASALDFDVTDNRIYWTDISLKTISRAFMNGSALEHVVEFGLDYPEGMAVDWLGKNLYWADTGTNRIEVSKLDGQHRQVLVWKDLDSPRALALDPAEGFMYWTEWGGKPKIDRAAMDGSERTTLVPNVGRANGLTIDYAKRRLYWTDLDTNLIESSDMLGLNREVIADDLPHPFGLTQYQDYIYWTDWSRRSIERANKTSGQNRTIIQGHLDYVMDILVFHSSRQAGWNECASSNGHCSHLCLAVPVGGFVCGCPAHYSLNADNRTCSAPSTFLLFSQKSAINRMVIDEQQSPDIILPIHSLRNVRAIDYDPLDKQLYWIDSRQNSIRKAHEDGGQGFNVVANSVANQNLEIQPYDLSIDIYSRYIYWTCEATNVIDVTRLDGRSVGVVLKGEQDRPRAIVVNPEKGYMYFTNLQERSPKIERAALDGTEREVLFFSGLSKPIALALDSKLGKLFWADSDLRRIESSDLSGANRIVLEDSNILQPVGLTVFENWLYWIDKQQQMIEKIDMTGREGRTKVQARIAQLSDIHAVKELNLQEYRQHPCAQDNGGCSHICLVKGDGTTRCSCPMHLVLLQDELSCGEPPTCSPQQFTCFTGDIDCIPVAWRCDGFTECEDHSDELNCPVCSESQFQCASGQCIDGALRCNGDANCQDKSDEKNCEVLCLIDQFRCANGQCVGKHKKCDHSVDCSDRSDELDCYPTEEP
The assay can be described thus: pull-down; prey AAVs mixed with His-tagged bait protein and Ni-NTA resin in DPBS with 20 mM imidazole, 1 h at 4 °C; eluate analysed by Western blot with anti-VP1/VP2/VP3 and anti-6xHis. To be noted: both partners purified. In general terms: Immunoblotting shows a protein as a band on a membrane.

In assay [2] the target is T2, human LRP6 (AA 20-1368) tagged with human IgG1 Fc (human, UniProt O75581 20-1368).
T2 construct: human LRP6, AA 20-1368; the methods call it full-length, the results the extracellular domain; also called human LRP6-Fc; human LRP6 extracellular domain; source: bought: Bio-Techne
T2 sequence (looked up): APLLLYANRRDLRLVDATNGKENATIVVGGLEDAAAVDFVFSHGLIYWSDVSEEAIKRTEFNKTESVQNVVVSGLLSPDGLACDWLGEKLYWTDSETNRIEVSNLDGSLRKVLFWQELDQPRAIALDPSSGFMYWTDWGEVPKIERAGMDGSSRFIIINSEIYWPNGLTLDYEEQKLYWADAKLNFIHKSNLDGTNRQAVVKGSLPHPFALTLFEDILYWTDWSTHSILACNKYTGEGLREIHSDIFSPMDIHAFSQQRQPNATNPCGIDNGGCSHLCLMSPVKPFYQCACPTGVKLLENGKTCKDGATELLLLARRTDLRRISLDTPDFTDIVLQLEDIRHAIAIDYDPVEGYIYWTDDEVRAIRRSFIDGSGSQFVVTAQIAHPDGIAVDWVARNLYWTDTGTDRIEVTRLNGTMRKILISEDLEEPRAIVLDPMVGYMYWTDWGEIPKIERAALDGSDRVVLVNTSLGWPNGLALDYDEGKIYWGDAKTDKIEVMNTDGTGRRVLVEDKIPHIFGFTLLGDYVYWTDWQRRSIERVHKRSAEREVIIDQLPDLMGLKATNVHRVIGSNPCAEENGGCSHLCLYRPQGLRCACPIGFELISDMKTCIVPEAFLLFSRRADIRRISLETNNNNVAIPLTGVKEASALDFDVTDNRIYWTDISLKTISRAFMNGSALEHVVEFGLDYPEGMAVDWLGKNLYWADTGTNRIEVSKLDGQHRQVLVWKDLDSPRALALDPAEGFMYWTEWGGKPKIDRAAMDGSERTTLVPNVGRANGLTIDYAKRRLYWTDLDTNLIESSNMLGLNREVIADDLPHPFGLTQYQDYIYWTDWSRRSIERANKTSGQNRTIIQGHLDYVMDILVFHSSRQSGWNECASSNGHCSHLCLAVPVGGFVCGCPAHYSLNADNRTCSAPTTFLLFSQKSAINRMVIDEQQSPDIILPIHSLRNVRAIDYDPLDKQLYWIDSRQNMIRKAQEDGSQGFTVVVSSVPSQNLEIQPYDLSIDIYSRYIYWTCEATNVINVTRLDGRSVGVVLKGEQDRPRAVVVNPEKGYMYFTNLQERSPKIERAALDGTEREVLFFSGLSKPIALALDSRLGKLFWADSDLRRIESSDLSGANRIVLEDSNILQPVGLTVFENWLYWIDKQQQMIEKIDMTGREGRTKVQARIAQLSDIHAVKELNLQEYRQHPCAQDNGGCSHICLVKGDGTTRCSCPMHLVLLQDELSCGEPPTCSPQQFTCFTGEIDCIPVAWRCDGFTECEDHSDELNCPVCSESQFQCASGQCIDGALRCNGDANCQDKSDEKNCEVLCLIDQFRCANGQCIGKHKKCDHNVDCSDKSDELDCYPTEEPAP
Nature of the assay: SPR; Sierra SPR-32, protein A sensor chip; human LRP6-Fc captured at 1200-1500 RU in HBS-EP+ (Fig. 4b); AAV injected at 10 µL per min for 240 s, 600 s dissociation; AAV from 2.4 × 10^12 v.g. per mL in twofold dilutions; apparent affinity, avid format. To be noted: both partners purified.

B1: AAV9-X1.1 capsid (complex, adeno-associated virus 9, UniProt Q6JC40 1-736, looked up)
chain: MAADGYLPDWLEDNLSEGIREWWALKPGAPQPKANQQHQDNARGLVLPGYKYLGPGNGLDKGEPVNAADAAALEHDKAYDQQLKAGDNPYLKYNHADAEFQERLKEDTSFGGNLGRAVFQAKKRLLEPLGLVEEAAKTAPGKKRPVEQSPQEPDSSAGIGKSGAQPAKKRLNFGQTGDTESVPDPQPIGEPPAAPSGVGSLTMASGGGAPVADNNEGADGVGSSSGNWHCDSQWLGDRVITTSTRTWALPTYNNHLYKQISNSTSGGSSNDNAYFGYSTPWGYFDFNRFHCHFSPRDWQRLINNNWGFRPKRLNFKLFNIQVKEVTDNNGVKTIANNLTSTVQVFTDSDYQLPYVLGSAHEGCLPPFPADVFMIPQYGYLTLNDGSQAVGRSSFYCLEYFPSQMLRTGNNFQFSYEFENVPFHSSYAHSQSLDRLMNPLIDQYLYYLSKTIDGAATKNQTLKFSVAGPSNMAVQGRNYIPGPSYRQQRVSTTVTQNNNSEFAWPGASSWALNGRNSLMNPGPAMASHKEGEDRFFPLSGSLIFGKQGTGRDNVDADKVMITNEEEIKTTNPVATESYGQVATNHQSAQGNNTRSVAQAQTGWVQNQGILPGMVWQDRDVYLQGPIWAKIPHTDGNFHPSPLMGGFGMKHPPPQILIKNTPVPADPPTAFNKDKLNSFITQYSTGQVSVEIEWELQKENSKRWNPEIQYTSNYYKSNNVEFAVNTEGVYSEPRPIGTRYLTRNL
notes: AAV9 capsid protein VP1 with changes in VR-IV and VR-VIII; numbers count on VP1; also called AAV-X1.1; source: HEK293 cells, triple transfected, purified (iodixanol gradient); copies: 60
As to B1, the binding result in assay [1] and in assay [2] was “binds” throughout.

B2: AAV.CAP-Mac capsid (complex, adeno-associated virus 9, UniProt Q6JC40 1-736, looked up)
chain: MAADGYLPDWLEDNLSEGIREWWALKPGAPQPKANQQHQDNARGLVLPGYKYLGPGNGLDKGEPVNAADAAALEHDKAYDQQLKAGDNPYLKYNHADAEFQERLKEDTSFGGNLGRAVFQAKKRLLEPLGLVEEAAKTAPGKKRPVEQSPQEPDSSAGIGKSGAQPAKKRLNFGQTGDTESVPDPQPIGEPPAAPSGVGSLTMASGGGAPVADNNEGADGVGSSSGNWHCDSQWLGDRVITTSTRTWALPTYNNHLYKQISNSTSGGSSNDNAYFGYSTPWGYFDFNRFHCHFSPRDWQRLINNNWGFRPKRLNFKLFNIQVKEVTDNNGVKTIANNLTSTVQVFTDSDYQLPYVLGSAHEGCLPPFPADVFMIPQYGYLTLNDGSQAVGRSSFYCLEYFPSQMLRTGNNFQFSYEFENVPFHSSYAHSQSLDRLMNPLIDQYLYYLSKTINGSGQNQQTLKFSVAGPSNMAVQGRNYIPGPSYRQQRVSTTVTQNNNSEFAWPGASSWALNGRNSLMNPGPAMASHKEGEDRFFPLSGSLIFGKQGTGRDNVDADKVMITNEEEIKTTNPVATESYGQVATNHQSAQLNTTKPIAQAQTGWVQNQGILPGMVWQDRDVYLQGPIWAKIPHTDGNFHPSPLMGGFGMKHPPPQILIKNTPVPADPPTAFNKDKLNSFITQYSTGQVSVEIEWELQKENSKRWNPEIQYTSNYYKSNNVEFAVNTEGVYSEPRPIGTRYLTRNL
notes: AAV9 capsid protein VP1 with an insertion in VR-VIII; numbers count on VP1; source: HEK293 cells, triple transfected, purified (iodixanol gradient); copies: 60
As for B2, the binding result in assay [1] and in assay [2] was “binds” throughout.
